Laboratory results taken from the supplement of paper PMC10065799, “High-throughput profiling of sequence recognition by tyrosine kinases and SH2 domains using bacterial peptide display” (eLife, 2023).

Legend:
Fer (mouse) = assay: phosphorylation enrichment, bacterial display (enrichment ratio); higher = better substrate or ligand; peptides without Tyr show the background
Fyn = Fyn (UniProt P06241); assay: as above
AncSZ = assay: as above
EPHB2 = EPHB2 (UniProt P29323); assay: as above
Fes = Fes (UniProt P07332); assay: as above
c-Abl (mouse) = assay: as above
FGFR3 = FGFR3 (UniProt P22607); assay: as above
Jak2 = Jak2 (UniProt O60674); assay: as above
FGFR1 = FGFR1 (UniProt P11362); assay: as above
EPHB1 = EPHB1 (UniProt P54762); assay: as above
Hck = Hck (UniProt P08631); assay: as above
c-Src = assay: as above
MERTK = MERTK (UniProt Q12866); assay: as above
c-Src SH2 = assay: SH2 binding enrichment of the phosphorylated peptide, bacterial display (enrichment ratio); higher = better substrate or ligand; peptides without Tyr show the background
SHP2-C SH2 = assay: as above
Grb2 SH2 = Grb2 SH2 (UniProt P62993); assay: as above
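For SH2 binding enrichment of the phosphorylated peptide, bacterial display in this document: peptide library displayed on the E. coli surface as eCPX fusions, selected cells deep-sequenced, score is each peptide's frequency after selection divided by its frequency in the input.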
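For phosphorylation enrichment, bacterial display in this document: 11-residue human phosphosite peptides and single-mutation variants displayed on the E. coli surface, counted by deep sequencing, each peptide's frequency after selection divided by its frequency in the unselected input library; frequency after pTyr selection over input frequency; kinase dosed for 20-30% of maximal phosphorylation in three min.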

Chain of EPHB2 (P29323 whole entry, looked up): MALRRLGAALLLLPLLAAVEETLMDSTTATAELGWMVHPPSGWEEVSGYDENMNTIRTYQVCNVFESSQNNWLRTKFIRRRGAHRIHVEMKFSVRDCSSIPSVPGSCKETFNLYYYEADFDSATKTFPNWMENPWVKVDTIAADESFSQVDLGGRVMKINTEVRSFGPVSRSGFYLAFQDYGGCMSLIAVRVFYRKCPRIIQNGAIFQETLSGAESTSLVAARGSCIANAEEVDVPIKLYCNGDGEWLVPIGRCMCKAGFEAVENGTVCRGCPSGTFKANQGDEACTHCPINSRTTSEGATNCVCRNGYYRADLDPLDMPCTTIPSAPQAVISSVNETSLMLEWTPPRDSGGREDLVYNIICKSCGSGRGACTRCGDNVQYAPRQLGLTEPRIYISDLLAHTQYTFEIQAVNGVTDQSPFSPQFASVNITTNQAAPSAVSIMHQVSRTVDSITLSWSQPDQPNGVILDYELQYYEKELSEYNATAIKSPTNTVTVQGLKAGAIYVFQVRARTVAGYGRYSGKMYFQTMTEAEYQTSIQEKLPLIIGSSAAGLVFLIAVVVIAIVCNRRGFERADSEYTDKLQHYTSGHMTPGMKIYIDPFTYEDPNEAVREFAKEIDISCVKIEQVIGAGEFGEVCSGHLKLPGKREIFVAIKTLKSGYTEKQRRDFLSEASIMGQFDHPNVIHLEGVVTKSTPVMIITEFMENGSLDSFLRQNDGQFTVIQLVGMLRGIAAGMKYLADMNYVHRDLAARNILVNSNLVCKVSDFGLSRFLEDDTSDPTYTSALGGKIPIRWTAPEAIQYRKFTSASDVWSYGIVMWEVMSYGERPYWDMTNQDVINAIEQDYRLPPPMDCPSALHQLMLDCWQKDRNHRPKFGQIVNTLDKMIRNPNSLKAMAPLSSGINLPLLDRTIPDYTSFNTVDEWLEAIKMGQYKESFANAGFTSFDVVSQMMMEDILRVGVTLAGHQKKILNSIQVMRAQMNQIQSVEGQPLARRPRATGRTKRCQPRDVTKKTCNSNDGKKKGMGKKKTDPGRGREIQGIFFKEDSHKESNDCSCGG
Chain of EPHB1 (P54762 whole entry, looked up): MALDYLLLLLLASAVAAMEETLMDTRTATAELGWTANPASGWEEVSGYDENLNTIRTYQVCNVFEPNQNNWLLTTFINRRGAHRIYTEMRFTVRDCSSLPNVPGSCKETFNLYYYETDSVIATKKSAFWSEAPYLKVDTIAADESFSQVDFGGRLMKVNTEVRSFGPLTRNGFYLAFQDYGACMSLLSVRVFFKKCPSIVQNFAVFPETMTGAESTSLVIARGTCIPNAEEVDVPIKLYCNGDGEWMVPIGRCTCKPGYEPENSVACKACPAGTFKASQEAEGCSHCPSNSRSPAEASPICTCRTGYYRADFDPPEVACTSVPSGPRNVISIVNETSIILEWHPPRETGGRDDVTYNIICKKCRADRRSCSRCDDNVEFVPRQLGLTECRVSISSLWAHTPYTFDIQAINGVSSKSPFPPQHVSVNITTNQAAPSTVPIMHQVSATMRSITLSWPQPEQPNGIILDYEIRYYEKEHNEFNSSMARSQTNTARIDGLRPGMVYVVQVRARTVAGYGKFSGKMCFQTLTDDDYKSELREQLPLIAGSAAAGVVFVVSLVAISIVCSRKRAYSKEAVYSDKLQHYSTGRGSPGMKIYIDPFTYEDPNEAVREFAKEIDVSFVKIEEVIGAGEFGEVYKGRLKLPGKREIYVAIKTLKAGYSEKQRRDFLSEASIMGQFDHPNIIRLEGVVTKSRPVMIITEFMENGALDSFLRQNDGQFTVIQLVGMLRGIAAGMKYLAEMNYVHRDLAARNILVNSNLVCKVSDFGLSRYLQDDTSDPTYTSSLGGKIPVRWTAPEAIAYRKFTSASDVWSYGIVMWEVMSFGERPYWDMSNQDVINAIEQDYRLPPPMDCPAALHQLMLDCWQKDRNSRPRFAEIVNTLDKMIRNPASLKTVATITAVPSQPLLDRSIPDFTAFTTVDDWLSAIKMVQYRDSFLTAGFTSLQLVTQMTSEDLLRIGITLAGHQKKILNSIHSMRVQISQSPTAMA
Chain of FGFR3 (P22607 whole entry, looked up): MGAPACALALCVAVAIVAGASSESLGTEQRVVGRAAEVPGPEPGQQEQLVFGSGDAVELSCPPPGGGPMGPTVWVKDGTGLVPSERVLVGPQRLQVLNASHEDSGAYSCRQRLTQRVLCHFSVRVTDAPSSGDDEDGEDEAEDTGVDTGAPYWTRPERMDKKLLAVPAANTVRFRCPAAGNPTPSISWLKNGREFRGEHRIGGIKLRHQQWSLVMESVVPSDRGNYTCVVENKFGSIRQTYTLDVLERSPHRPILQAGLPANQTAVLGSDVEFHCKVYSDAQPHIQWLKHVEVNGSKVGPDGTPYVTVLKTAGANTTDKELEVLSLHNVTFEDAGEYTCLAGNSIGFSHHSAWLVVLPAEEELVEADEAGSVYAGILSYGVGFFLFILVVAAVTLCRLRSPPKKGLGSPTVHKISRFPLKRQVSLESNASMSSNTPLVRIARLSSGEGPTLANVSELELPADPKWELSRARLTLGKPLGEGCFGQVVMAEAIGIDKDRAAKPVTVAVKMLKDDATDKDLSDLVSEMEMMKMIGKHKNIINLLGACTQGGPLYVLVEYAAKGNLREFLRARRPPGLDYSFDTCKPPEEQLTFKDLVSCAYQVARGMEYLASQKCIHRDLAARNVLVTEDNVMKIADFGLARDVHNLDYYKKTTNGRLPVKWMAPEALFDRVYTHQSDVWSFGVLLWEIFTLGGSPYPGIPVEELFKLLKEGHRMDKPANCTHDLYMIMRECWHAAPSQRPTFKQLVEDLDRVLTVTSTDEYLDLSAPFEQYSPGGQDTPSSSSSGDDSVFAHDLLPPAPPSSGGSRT
Chain of Jak2 (O60674 whole entry, looked up): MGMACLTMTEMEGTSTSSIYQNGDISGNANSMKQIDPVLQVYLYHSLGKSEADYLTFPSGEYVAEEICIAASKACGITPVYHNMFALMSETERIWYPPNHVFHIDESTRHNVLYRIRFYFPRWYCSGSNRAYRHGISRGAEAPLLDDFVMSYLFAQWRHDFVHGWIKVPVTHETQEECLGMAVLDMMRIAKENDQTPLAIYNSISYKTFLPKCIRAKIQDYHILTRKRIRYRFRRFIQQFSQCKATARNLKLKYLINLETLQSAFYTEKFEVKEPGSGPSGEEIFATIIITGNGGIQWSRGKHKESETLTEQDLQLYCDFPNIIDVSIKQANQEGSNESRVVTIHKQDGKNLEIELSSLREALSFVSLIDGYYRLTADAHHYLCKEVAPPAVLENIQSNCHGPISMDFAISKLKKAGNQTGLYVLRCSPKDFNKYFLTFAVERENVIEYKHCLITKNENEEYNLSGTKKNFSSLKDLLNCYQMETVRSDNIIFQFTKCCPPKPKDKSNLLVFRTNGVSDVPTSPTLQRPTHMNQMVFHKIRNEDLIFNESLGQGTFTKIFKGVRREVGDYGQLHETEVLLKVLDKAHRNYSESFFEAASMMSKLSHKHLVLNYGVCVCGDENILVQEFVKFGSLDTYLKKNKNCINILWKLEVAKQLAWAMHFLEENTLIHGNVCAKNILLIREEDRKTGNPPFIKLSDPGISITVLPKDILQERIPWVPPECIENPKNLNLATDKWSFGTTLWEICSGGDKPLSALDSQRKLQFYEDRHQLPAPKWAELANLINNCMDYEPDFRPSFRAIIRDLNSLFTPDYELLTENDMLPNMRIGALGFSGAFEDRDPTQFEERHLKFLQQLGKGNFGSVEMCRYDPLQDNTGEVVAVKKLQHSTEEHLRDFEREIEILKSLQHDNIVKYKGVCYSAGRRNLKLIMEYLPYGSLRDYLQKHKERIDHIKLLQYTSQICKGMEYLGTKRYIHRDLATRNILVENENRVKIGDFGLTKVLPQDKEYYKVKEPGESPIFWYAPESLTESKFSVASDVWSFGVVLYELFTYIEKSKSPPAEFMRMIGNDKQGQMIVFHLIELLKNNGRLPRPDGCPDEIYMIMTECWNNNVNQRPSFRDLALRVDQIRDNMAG
Chain of Fes (P07332 whole entry, looked up): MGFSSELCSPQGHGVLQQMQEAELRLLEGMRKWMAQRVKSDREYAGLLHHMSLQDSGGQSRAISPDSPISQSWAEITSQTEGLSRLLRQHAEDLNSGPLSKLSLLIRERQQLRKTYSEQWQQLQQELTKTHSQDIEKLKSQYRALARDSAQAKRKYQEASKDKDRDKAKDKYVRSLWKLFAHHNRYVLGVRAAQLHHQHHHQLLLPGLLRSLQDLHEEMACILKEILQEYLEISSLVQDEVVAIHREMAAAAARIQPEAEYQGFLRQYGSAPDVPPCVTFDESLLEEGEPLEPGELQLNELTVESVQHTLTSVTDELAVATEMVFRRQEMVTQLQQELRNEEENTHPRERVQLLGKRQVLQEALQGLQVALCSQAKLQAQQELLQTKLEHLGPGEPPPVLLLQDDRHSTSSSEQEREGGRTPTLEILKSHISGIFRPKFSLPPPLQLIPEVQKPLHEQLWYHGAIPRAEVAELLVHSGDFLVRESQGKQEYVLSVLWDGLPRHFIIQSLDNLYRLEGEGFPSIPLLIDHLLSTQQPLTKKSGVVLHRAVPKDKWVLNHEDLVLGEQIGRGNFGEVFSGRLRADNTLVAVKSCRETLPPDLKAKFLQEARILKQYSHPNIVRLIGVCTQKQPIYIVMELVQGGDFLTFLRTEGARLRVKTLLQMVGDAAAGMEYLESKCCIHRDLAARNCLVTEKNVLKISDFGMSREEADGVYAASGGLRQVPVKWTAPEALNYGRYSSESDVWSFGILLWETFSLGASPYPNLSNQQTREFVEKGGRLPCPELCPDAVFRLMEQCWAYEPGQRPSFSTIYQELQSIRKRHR
Chain of Grb2 SH2 (P62993 whole entry, looked up, the tested form may be a part): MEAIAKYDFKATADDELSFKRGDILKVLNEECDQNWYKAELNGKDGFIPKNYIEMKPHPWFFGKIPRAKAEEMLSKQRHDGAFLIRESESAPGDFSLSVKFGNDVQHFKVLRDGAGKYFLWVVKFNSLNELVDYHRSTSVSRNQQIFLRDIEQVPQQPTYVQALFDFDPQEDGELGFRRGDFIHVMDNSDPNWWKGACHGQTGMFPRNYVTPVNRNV

Sequence	phosphorylation enrichment (Fer (mouse))	phosphorylation enrichment (Fyn)	phosphorylation enrichment (AncSZ)	phosphorylation enrichment (EPHB2)	phosphorylation enrichment (Fes)	phosphorylation enrichment (c-Abl (mouse))	phosphorylation enrichment (FGFR3)	phosphorylation enrichment (Jak2)	phosphorylation enrichment (FGFR1)	phosphorylation enrichment (EPHB1)	phosphorylation enrichment (Hck)	phosphorylation enrichment (c-Src)	phosphorylation enrichment (MERTK)	SH2 binding enrichment (c-Src SH2)	SH2 binding enrichment (SHP2-C SH2)	SH2 binding enrichment (Grb2 SH2)
CNSFQYGGGGG [NPPA_Y151_R150Q]	0.512	0.436	0.794	0.452	0.919	0.731	0.549	0.716	0.409	0.501	0.497	0.532	0.447	0.531	0.806	0.845
CSSPTYRDCLQ [LARGE2_Y682_R677C]	0.408	0.402	0.812	0.436	0.892	0.503	0.738	0.846	0.49	0.5	0.473	0.484	0.37	1	1.15	0.94
CTHDLYMFMRE [FGFR3_Y724_I726F]	0.994	0.584	1.43	1.04	1.56	0.992	1.45	1.34	1.76	2.23	1.06	2.37	1.9	0.436	0.636	0.71
CTNPRYLAAGS [RABL3_Y185]	0.629	0.426	0.794	0.486	0.767	0.787	0.646	0.915	0.507	0.496	0.357	0.467	0.415	0.444	0.609	0.767
CTTFHYNFMCN [TP53_Y234_I232F_YF]	0.581	0.501	0.923	0.57	1.1	0.641	0.672	0.866	0.579	0.468	0.479	0.595	0.4	2.14	1.47	1.64
CTTIHSNYMCN [TP53_Y234_Y234S]	0.44	0.478	0.853	0.563	0.915	0.576	0.588	0.608	0.483	0.542	0.448	0.387	0.479	1.02	1.39	1.1
CTTIHYNNMCN [TP53_Y234_Y236N]	0.404	0.486	0.734	0.479	0.943	0.528	0.538	0.551	0.423	0.455	0.532	0.416	0.367	1.89	0.818	2.45
CTTIHYNYMCD [TP53_Y234_N239D]	0.465	0.405	0.796	0.515	0.898	0.545	0.631	0.625	0.57	0.647	0.469	0.422	0.426	8.55	2.32	1.16
CTTIHYNYMCI [TP53_Y234_N239I]	1.05	0.487	0.946	2.4	1	0.509	1.55	0.859	2.52	5.99	0.494	0.462	1.41	2.6	2.53	1.87
CTTIHYNYMYN [TP53_Y234_C238Y]	1.21	0.507	1.12	0.69	1.22	0.684	0.844	0.91	0.877	0.945	0.563	0.543	1	1.1	0.887	0.843
DASENYFVMDS [TMEM240_Y77_T80M]	0.732	0.392	1.91	4.43	1.1	0.677	7.01	0.952	8.76	6.62	0.457	0.569	1.92	0.598	0.767	1.01
DAVAVYHGKIS [SH2D1A_Y7]	0.379	0.442	0.593	0.442	0.744	0.51	0.492	0.603	0.388	0.395	0.533	0.348	0.369	0.406	0.82	0.717
DCLASYLDKVR [KRT10_Y160_R156C]	0.402	0.422	0.886	0.659	0.953	0.706	0.659	0.842	0.56	0.55	0.452	0.419	0.4	0.55	0.711	0.932
DDDPEYRKFLE [UPF3B_Y160]	0.478	0.617	1.32	0.7	1.22	0.577	0.799	1.06	0.669	0.612	0.597	0.483	0.566	0.547	0.542	0.834
DDFNLYINVKL [MTHFD1_Y52_S49F]	0.38	0.46	1.47	0.563	1.67	0.984	0.997	1.67	0.511	0.86	0.558	0.472	0.483	0.458	0.732	0.794
DDLTDYLMKIL [ACTA1_Y190_R185D]	0.457	0.444	1.22	0.553	1.1	0.758	0.669	1.15	0.516	0.476	0.519	0.548	0.529	0.689	1.26	0.962
DDPRRYQKYGY [OAS1_Y362]	0.403	0.426	0.598	0.544	0.591	0.592	0.446	0.507	0.414	0.368	0.499	0.438	0.368	0.894	1.3	1.05
